This is an account of results in article PMC10267100 (Communications Biology, 2023).

T1: PTP1B (Homo sapiens, UniProt P18031)
T1 construct: human PTP1B phosphatase domain (residues 2–321) with a GST tag; GST (cleaved yes); made in house; host or cells: E. coli BL21 (DE3)
T1 sequence (P18031 2-321): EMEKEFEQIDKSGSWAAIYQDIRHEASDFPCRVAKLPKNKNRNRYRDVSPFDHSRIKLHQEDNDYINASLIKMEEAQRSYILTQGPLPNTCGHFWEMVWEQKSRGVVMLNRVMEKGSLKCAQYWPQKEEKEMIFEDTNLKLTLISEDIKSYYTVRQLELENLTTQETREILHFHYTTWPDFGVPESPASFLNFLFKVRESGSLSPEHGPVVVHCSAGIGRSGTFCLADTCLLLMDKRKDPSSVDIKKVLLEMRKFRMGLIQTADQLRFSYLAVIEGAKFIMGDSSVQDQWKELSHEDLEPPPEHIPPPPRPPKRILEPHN

T2: IRK pYpY activation loop peptide
T2 peptide: ETD[pY][pY]RKGGKGL

T3: PTP1B phosphatase domain (residues 2-321) D181A/Q262A (human, UniProt P18031 2-321, D181A | Q262A)
T3 construct: Protein tyrosine phosphatase 1B, human, phosphatase domain, residues 2-321, D181A/Q262A; pPROEX vector; no cleavage of the His tag is told; also called PTP1B D181A/Q262A; PTP1B D/Q; source: E. coli BL21 (DE3), purified (nickel resin, size exclusion)
T3 sequence (looked up): T1 sequence (P18031 2-321) with D180A, Q261A

T4: PTP1B phosphatase domain (residues 2-321) C215A/D181A/Q262A triple mutant (human, UniProt P18031 2-321, D181A | C215A | Q262A)
T4 construct: Protein tyrosine phosphatase 1B, human, phosphatase domain, residues 2-321, D181A/C215A/Q262A; pPROEX vector; no cleavage of the His tag is told; also called D181A/Q262A/C215A; PTP1B D/Q/C; source: E. coli BL21 (DE3), purified (nickel resin, size exclusion)
T4 sequence (looked up): T1 sequence (P18031 2-321) with D180A, C214A, Q261A

B1: PTP1B phosphatase domain (residues 2-321) R47A (enzyme)
chain: T1 sequence (P18031 2-321) with R46A
B2: human PTP1B phosphatase domain (residues 2-321), wild type (enzyme, UniProt P18031 2-321, looked up)
chain: T1 sequence (P18031 2-321)
B3: JAK3 pYpY activation loop peptide (peptide)
peptide: LLPLDKD[pY][pY]VVREPGQ
notes: printed as LLPLDKD[pY][pY]VVREPGQ; In the crystal with PTP1B D181A/Q262A the peptide is seen as the dephosphorylated product; also called JAK3 peptide; source: synthetic peptide
B4: JAK2 pYpY activation loop peptide (peptide)
peptide: VLPQDKE[pY][pY]KVKEPGE
notes: printed as VLPQDKE[pY][pY]KVKEPGE; In the crystal with PTP1B D181A/Q262A the peptide is seen as the dephosphorylated product; source: synthetic peptide
B5: TYK2 pYpY activation loop peptide (peptide)
peptide: VPEGHE[pY][pY]RVREDGD
notes: printed as VPEGHE[pY][pY]RVREDGD; In the crystal with PTP1B D181A/Q262A the peptide is seen as the dephosphorylated product; source: synthetic peptide
B6: JAK1 pYpY activation loop peptide (peptide)
peptide: AIETDKE[pY][pY]TVKDDLD
notes: printed as AIETDKE[pY][pY]TVKDDLD; In the crystal with PTP1B D181A/Q262A the peptide is seen as the dephosphorylated product; also called JAK1 peptide; source: synthetic peptide

Substitutions are numbered along the chain they refer to. Names and notes keep the numbering of the source. Square brackets hold non-standard residues; d marks the D form. Ends that are not written are not given here. pY = N[C@@H](Cc1ccc(OP(=O)(O)O)cc1)C(=O)O

The target in assay [1] is T1, PTP1B. The assay can be described thus: 1H NMR dephosphorylation of activation loop peptides. It is filed as biochemical. The note with it: bisphosphorylated peptide as substrate, WT PTP1B, Fig. 6c. An excerpt:
A Michaelis-Menten analysis of dephosphorylation of JAK2 and IRK activation loop peptides indicated an enhanced dephosphorylation rate for both peptides when in the bisphosphorylated state (Fig. 6a), consistent with previous data on IRK[7]. […] Using ^1H NMR we then measured the dephosphorylation of individual YpY, pYY and YY peptides over time (Supplementary Fig. S5), and similarly, observed an overall preference for bisphosphorylated peptides, however JAK2 YpY was dephosphorylated at a similar rate as the pYpY peptides, highlighting again the preference for this residue by PTP1B (Fig. 6).
Fig. 6 PTP1B preferentially targets different phosphotyrosines in the JAK2 and IRK activation loops. a Michaelis–Menten analysis of PTP1B-induced dephosphorylation via the malachite green assay. Data are from three independent experiments, error bars are SEM. b Dephosphorylation of mono- and bisphosphorylated peptides over time as measured by 1H NMR to determine reaction rate (shown as s-1). c 1H NMR was used to track the dephosphorylation of JAK2 and IRK bisphosphorylated activation loop peptides over time. […]
(§1) Specifically, we measured the appearance of the individual YpY, pYY and YY products over time (Supplementary Fig. S6). […]
0.5 mg of JAK2 or IRK pYpY, pYY and YpY peptides were dissolved in 500 μl of 20 mM Tris (pH 7.5), 2 mM TCEP, and 100 mM NaCl. […] Data was analyzed using TopSpin v3.2 (Bruker). […]

Assay [2] concerns PTP1B. The following applies: peptide with Phe in the −1 position; cited from earlier work.
Another assay concerns PTP1B R47A. The assay can be described thus: 1H NMR dephosphorylation of bisphosphorylated activation loop peptides. Format: biochemical, human. The note with it: bisphosphorylated peptide as substrate, PTP1B R47A mutant.
Text: Fig. 6 PTP1B preferentially targets different phosphotyrosines in the JAK2 and IRK activation loops. a Michaelis–Menten analysis of PTP1B-induced dephosphorylation via the malachite green assay. Data are from three independent experiments, error bars are SEM. b Dephosphorylation of mono- and bisphosphorylated peptides over time as measured by 1H NMR to determine reaction rate (shown as s-1). c 1H NMR was used to track the dephosphorylation of JAK2 and IRK bisphosphorylated activation loop peptides over time. […] Arg47 has an effect on the preference for dephosphorylation of the second phosphotyrosine in JAK2, with loss of selectivity for dephosphorylation of either phosphotyrosine in the R47A PTP1B mutant. […]
as §1
0.5 mg of JAK2 or IRK pYpY, pYY and YpY peptides were dissolved in 500 μl of 20 mM Tris (pH 7.5), 2 mM TCEP, and 100 mM NaCl. […] To start the dephosphorylation reaction, 2 nM PTP1B was added to each sample and multiple 1H NMR spectra were recorded over the course of 1 h. Data was analyzed using TopSpin v3.2 (Bruker). The concentration of each species of ALP (pYpY, pYY, or YpY) in the reaction was calculated by integrating the area under the peak and normalising these values to the starting peptide concentration.

Assay [3] addresses B4.
Assay [4] has as its target B4. Description: cell-based or functional assay.
Assay [5] concerns the target T2, IRK pYpY activation loop peptide. The assay can be described thus: cell-based or functional assay.
Assay [6] concerns the target T3, PTP1B phosphatase domain (residues …). Description: crystal structure; PTP1B D181A/Q262A co-crystallised with a 2-fold excess of bisphosphorylated peptide; the tyrosyl-peptide product and free phosphate are seen in the active site. The following applies: both partners purified.
Assay [7] concerns the target T4, PTP1B phosphatase domain (residues …). The assay can be described thus: crystal structure; catalytically dead PTP1B D181A/Q262A/C215A co-crystallised with a 2-fold excess of phosphopeptide; substrate-bound. The following applies: both partners purified.

ETD[pY][pY]RKGGKGL [IRK pYpY]: the “preference for dephosphorylation of the first pTyr over the second” value on PTP1B [1] (1H NMR tracking of products) is ~ 1.6 fold. For “ELEFpYMDYE [peptide of PDB 1EEO with Phe in the −1 position, literature PTP1B substrate]”, in the assay with PTP1B [2], the “substrate quality for PTP1B” value is “potent PTP1B substrate”.

VLPQDKE[pY][pY]KVKEPGE [JAK2 pYpY]: on PTP1B [1] (1H NMR tracking of pYY and YpY products), the “rate of dephosphorylation of the second pTyr relative to the first” value is ~ 3 fold. For the same molecule, the “preference for dephosphorylation of the second pTyr over the first” value in the assay on PTP1B R47A came to 1.3 fold. In turn, B1 registered a preference for dephosphorylation of the second pTyr against the first in the bisphosphorylated peptide, followed by 1H NMR in assay [3] of 1.3 fold. As for B2, the “rate of dephosphorylation of the second pTyr against the first in the bisphosphorylated peptide, followed by 1H NMR” value in assay [4] is about 3 fold. Also, the “preference for dephosphorylation of the first pTyr against the second in the bisphosphorylated peptide, followed by 1H NMR” value in assay [5] is about 1.6 fold. B3: the binding result in assay [6] is “binds”. With B4, the binding result in assay [6] and in assay [7] was “binds” in each case. Turning to B5, the binding result in assay [6] and in assay [7] was “binds” throughout.

Take VLPQDKE[pY]YKVKEPGE (source: synthetic peptide) [JAK2 pYY activation loop peptide]: the binding result in assay [7] is given as “binds”. Consider VLPQDKEY[pY]KVKEPGE (source: synthetic peptide) [JAK2 YpY activation loop peptide], for which the binding result in assay [7] is given as “binds”. In the case of B6, the binding result in assay [6] was “binds”.
